# Experimental data taken from patent US20070249534A1, “Novel medicament for treating neurodegenerative diseases” (priority 2001, published 2007).
# Where two headings read alike, the source gives them in different places. Where a SMILES comes first, the peptide text is derived from it. Where no end group is shown, it is not given here. [ ]: non-standard residue; d: D form. Sec = N[C@@H](C[SeH])C(=O)O
# Columns and labels:
# Dami cells [1] = assay: Cytotoxicity-inhibitory (cell death-inhibitory) activity assay using Dami cells; assay type: cell-based; conditions: for cell death-inhibitory activity (in words): selenoprotein P and fragments purified from plasma
# Protocol: Using Dami cells (described in Greenberg S. M. et al., Blood, vol. 72, p. 1968-1977 (1988)) for use in assay system for cytotoxicity-inhibitory activity, the cells were washed twice with assay medium (50% PBS/SA/0.03% HSA (manufactured by SIGMA) or SA/0.05% BSA free from fatty acid (WAKO)/4 μM long-chain polyvalent fatty acid (e.g. arachidonic acid, linoleic acid or linolenic acid)) and suspended in the same medium at 3×10^4 cells/ml. The cell suspension was added to a 96-well plate in each 200 μl for wells for sample addition or in each 100 μl for wells for serial dilution. […] After stirring, a serial dilution was made with the wells containing 100 μl cell suspension. The plate was incubated at 37° C. in CO2 incubator for 4 to 5 days followed by assessment of survival of the cells.
# Rolling Mouse Nagoya [2] = conditions: intraperitoneal administration; cited from earlier work
# Dami cells [3] = conditions: stated as known; cited from earlier work
# Dami cells [4] = test system: Dami cells
# [5] = Stability of selenoprotein P and its fragments to heat, denaturing agent, pH, protease in blood; assay type: physicochemical; conditions: compared to common enzymes
# Rolling Mouse Nagoya [6] = assay: Effect of selenoprotein P on ataxia (stumbling index) in Rolling Mouse Nagoya; assay type: in vivo
# Protocol: In order to confirm the activity to ameliorate ataxia of selenoprotein P, Rolling Mouse Nagoya, the established model of ataxia, was used with a stumbling index. Animals were divided into the following groups each consisting of ten animals: a control group intraperitoneally administered with saline (0.25 mL/head/week); a group intraperitoneally administered with a low dose of selenoprotein P (0.05 mg/head/week; 0.25 mL/head/week); and a group intraperitoneally administered with a high dose of selenoprotein P (0.5 mg/head/week; 0.25 mL/head/week). The animals received intraperitoneal administration once a week for three weeks.
# The animals were Rolling Mouse Nagoya (113 animals, five to eight months old, weighing 19.1 to 36.2 g) regardless of sex. Grouping of the animals was based on the weight measured on the day before initiation of the experiment and a stumbling index measured before initiation of the experiment. A quantity of voluntary motion was measured during thirty minutes immediately before administration (during 30-0 min. before administration), immediately after administration (during 0-30 min. after administration), one hour after administration (during 60-90 min. after administration), three hours after administration (during 180-210 min. after administration), and seven hours after administration (during 420-450 min. after administration) with a device for measuring voluntary motion. Stumbling of animals was counted with a video camera set upon the device for measuring voluntary motion during the same time period as that of measurement of voluntary motion. A stumbling index was calculated by the formula: [Count of stumbling (count/30 min.)]/[Voluntary motion (count/30 min.)]. The results are shown in FIGS. 1 to 3 wherein #: p<0.05, ##: p<0.01, being significant as compared to values before administration (paired t-test); *: p<0.05, being significant as compared to control during the same time period (Turkey test).
# Dami cells [7] = assay: Toxicity of selenium-containing substances to cells in culture; conditions: concentration where selenocystine / other selenium-containing substances show toxicity
molecule,measurement,setting,value
"CC[C@H](C)[C@H](NC(=O)[C@H](CC(C)C)NC(=O)[C@H](Cc1c[nH]cn1)NC(=O)[C@H](CCCNC(=N)N)NC(=O)[C@H](CO)NC(=O)[C@H](Cc1c[nH]cn1)NC(=O)[C@H](CO)NC(=O)[C@H](CO)NC(=O)[C@H](C[SeH])NC(=O)[C@H](CO)NC(=O)[C@@H](N)CCCNC(=N)N)C(=O)N[C@@H](Cc1ccccc1)C(=O)N[C@@H](CCC(=O)O)C(=O)N[C@@H](CCCCN)C(=O)O [Peptide 6, Arg Ser Xaa Ser Ser His Ser Arg His Leu Ile Phe Glu Lys] (H-RS[Sec]SSHSRHLIFEK-OH)",cytotoxicity-inhibitory activity (in words),"Dami cells [1]; Dami cells, peptides of Preparation 2",most effectively at the lowest concentration
"NC(=O)[C@@H]1CCCN1C(=O)[C@H](Cc1cnc[nH]1)NC(=O)[C@@H]1CCC(=O)N1 [TRH, thyrotropin-releasing hormone]",duration of the efficacy,Rolling Mouse Nagoya [2],about 1 hours
N[C@@H](C[Se][Se]C[C@H](N)C(=O)O)C(=O)O [selenocystine],toxicity when added alone to cell culture,Dami cells [3],fairly strong toxicity
same,toxicity (in words),Dami cells [4],exhibited toxicity
"Lys Arg Cys Ile Asn Gln Leu Leu Cys Lys Leu Pro Thr Asp Ser Glu Leu Ala Pro Arg Ser Xaa Cys Cys H is Cys Arg H is Leu Ile Phe Glu Lys (KRCINQLLCKLPTDSELAPRS[Sec]CCHCRHLIFEK; cysteine pairing not given here; listed as Human plasma) [SEQ ID NO: 3, peptide purified under reduced condition from selenoprotein P fragment]",cell death-inhibitory activity (in words),Dami cells [1],had the cell death-inhibiting activity
"SEQ ID NO: 2: selenoprotein P fragment, 260th to 362nd amino acids (103 C-terminal residues) (protein, listed as Human plasma, ends and bridges not checked) KRCINQLLCKLPTDSELAPRS[code U]CCHCRHLIFEKTGSAIT[code U]QCKENLPSLCS[code U]QGLRAEENITESCQ[code U]RLPPAA[code U]QISQQLIPTEASAS[code U]R[code U]KNQAKK[code U]E[code U]PSN",cell death-inhibitory activity (in words),Dami cells [1],having the cell death-inhibiting activity
"selenoprotein P (protein, non-natural residues) ESQDQSSLCKQPPAWSIRDQDPMLNSNGSVTVVALLQASUYLCILQASKLEDLRVKLKKEGYSNISYIVVNHQGISSRLKYTHLKNKVSEHIPVYQQEENQTDVWTLLNGSKDDFLIYDRCGRLVYHLGLPFSFLTFPYVEEAIKIAYCEKKCGNCSLTTLKDEDFCKRVSLATVDKTVETPSPHYHHEHHHNHGHQHLGSSELSENQQPGAPNAPTHPAPPGLHHHHKHKGQHRQGHPENRDMPASEDLQDLQKKLCRKRCINQLLCKLPTDSELAPRSUCCHCRHLIFEKTGSAITUQCKENLPSLCSUQGLRAEENITESCQURLPPAAUQISQQLIPTEASASURUKNQAKKUEUPSN","stability to heat, a denaturing agent, a broad range of pH or protease in blood",[5],rather stable
same,cell death-inhibitory activity (in words),Dami cells [1],much lower than that of the fragment thereof
same,stumbling index compared with values before administration,"Rolling Mouse Nagoya [6]; high dose 0.5 mg/head/week i.p., 420-450 min Week 1, 60-90, 180-210, 420-450 min Week 2, 60-90 min Week 3",significant decrease
same,"stumbling index compared with control group, significance","Rolling Mouse Nagoya [6]; high dose 0.5 mg/head/week i.p., during 60-90 min. after administration on Week 1",significant decrease
same,stumbling index compared with control group,"Rolling Mouse Nagoya [6]; high dose 0.5 mg/head/week i.p., each time period on Week 1, Week 2 and Week 3",remained lower than the control group
same,"stumbling index, low dose group",Rolling Mouse Nagoya [6]; low dose 0.05 mg/head/week i.p.,no significant decrease
same,toxicity (in words),Dami cells [7],no strong toxicity
